Source: EP1086377B1, “A METHOD OF IDENTIFYING LIGANDS TO RNA […] 70 SUBUNIT” (AstraZeneca AB, priority 1998, dated 1999)

What was measured:
[1] = target: T1, Truncated sigma^70 (C-terminal 99 amino acids) (Escherichia coli, UniProt P00579); test: Competitive ELISA for quantification of AsiA-sigma^70 interaction (GST-AsiA binding to immobilised truncated sigma^70); set-up: species or system E. coli
T1 construct: made in house; GST-AsiA from E. coli DH5alpha / pARC 8105
Method: A solution of the protein product (200 pmoles/ml) in a pH 7.5 buffer comprising Tris HCl (10 mM) and sodium chloride (50 mM) was prepared and 200 µl of solution were added per well of a nickel-coated microtitre plate, followed by incubation at room temperature for a period of two hours. The microtitre plate was then washed 5 times with the buffer solution and then incubated at 37°C for one hour with a solution of bovine serum albumin (3% w/v) in the above buffer. After washing 5 times with phosphate buffered saline (PBS) with "Tween" 20 (polyoxyethylene (20) sorbitan monolaurate, 0.5% v/v), the GST-AsiA fusion protein prepared as described in Example 4.1. above (100 ng) was added together with a defined amount of a putative inhibitor of truncated sigma^70 protein (corallopyronin, myxopyronin or ripostatin) and incubated at 37°C for one hour. Further washing (5 times) with PBS-"Tween" 20 was carried out and then anti-GST antibodies (1:2000) raised in rabbits were added to the wells, with incubation at 37°C for one hour. The previous washing step was repeated and thereafter anti-rabbit IgG-horse radish peroxidase (HRP) conjugate (1:2000) was added and incubated at 37°C for one hour. A final wash with PBS-"Tween" 20 was carried out, before adding the HRP enzyme substrate, tetramethyl benzidene/ H2O2. The enzymic reaction (resulting in the development of colour) was stopped after a suitable period of time by the addition of 6N H2SO4 and the microtitre plate was "read" in a spectrophotometer using light of wavelength (λ) 450 nm.

[2] = target: Truncated sigma^70 (C-terminal 99 amino acids of E. coli sigma^70), (His)5-tagged (Escherichia coli) (UniProt P00579); test: competitive ELISA; His-tagged truncated sigma^70 on nickel plate, free AsiA 7 µg/ml competing with GST-AsiA 500 ng/ml; the value is the GST-AsiA binding that remains
[3] = target: Salmonella typhimurium RNA polymerase sigma^70 subunit (Salmonella typhimurium) (UniProt P0A2E3); test: cell-based or functional assay
[4] = target: E. coli RNA polymerase sigma^70 subunit (Escherichia coli) (UniProt P00579); test: cell-based or functional assay
[5] = target: Truncated sigma^70 (C-terminal 99 amino acids of E. coli sigma^70), (His)5-tagged (Escherichia coli) (UniProt P00579); test: ELISA; His-tagged truncated sigma^70 on nickel plate, GST-AsiA detected with rabbit anti-GST and anti-rabbit IgG-HRP, OD 450 nm; reference without competitor
[6] = GST-AsiA 500 ng/ml + competitor at 30 µg/ml

E. coli RNA polymerase sigma^70 subunit (Escherichia coli), sequence (P00579 whole entry, the tested form may be a part): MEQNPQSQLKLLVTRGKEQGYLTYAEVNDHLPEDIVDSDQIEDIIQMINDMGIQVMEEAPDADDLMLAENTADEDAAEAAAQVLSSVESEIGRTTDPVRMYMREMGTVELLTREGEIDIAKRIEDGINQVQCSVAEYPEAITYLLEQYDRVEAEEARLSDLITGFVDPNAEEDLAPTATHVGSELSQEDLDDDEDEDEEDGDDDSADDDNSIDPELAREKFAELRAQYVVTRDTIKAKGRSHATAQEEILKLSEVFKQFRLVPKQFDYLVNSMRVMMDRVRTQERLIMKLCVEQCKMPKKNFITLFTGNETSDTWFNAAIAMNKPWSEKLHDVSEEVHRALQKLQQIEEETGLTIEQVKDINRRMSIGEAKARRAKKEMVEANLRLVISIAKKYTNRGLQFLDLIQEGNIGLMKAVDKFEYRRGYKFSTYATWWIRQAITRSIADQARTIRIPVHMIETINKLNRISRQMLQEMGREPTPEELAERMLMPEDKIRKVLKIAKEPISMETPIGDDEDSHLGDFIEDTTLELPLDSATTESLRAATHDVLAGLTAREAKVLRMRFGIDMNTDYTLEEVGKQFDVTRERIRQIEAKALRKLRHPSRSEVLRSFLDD
T1 sequence (P00579 515-613): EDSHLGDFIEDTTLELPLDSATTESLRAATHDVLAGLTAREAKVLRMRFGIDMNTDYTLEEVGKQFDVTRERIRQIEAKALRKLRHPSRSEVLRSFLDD
Truncated sigma^70 (C-terminal 99 amino acids of E. coli sigma^70), (His)5-tagged (Escherichia coli), sequence (P00579 515-613): as above
Salmonella typhimurium RNA polymerase sigma^70 subunit (Salmonella typhimurium), sequence (P0A2E3 whole entry): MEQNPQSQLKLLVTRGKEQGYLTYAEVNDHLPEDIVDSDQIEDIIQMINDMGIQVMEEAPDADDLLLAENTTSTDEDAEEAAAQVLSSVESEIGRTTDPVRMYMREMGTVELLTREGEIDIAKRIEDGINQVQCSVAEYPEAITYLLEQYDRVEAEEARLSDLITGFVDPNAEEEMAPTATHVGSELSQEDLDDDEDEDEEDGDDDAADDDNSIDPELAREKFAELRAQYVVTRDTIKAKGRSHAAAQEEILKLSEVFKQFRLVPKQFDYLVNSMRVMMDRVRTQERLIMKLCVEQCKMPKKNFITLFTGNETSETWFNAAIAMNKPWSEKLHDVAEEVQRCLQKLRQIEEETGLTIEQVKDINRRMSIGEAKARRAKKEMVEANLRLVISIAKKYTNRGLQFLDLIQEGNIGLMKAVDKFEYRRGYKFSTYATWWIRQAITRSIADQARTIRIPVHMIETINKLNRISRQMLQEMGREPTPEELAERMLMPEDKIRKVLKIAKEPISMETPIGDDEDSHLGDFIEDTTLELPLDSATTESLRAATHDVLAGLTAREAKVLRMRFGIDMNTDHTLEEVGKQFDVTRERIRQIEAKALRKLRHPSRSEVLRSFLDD
GST-AsiA fusion protein (glutathione-S-transferase fused to the N-terminus of the bacteriophage T4 a, sequence (P08515 whole entry, the tested form may be a part): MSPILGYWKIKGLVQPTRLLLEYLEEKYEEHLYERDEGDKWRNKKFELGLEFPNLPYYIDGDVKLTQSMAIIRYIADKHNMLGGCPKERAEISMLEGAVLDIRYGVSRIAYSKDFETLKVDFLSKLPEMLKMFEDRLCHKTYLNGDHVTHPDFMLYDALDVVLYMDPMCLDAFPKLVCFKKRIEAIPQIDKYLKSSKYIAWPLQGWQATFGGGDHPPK

Molecule: C/C=C/C/C=C(\C)C(O)CC/C(C)=C/C=C(\C)C(=O)c1c(O)cc([C@H](C)CC/C=C/NC(=O)OC)oc1=O (some centres unmarked) [corallopyronin]
- % Binding to truncated sigma^70 [1, 6]: 69%

Molecule: C/C(=C\Cc1ccccc1)CCC(=O)C[C@H]1C[C@H](O)C/C(C)=C/C/C=C/C/C(CC(=O)O)=C\C(=O)O1 [ripostatin]
- % Binding to truncated sigma^70 ([1]; GST-AsiA 500 ng/ml + competitor at 1 µg/ml): 100%
- % Binding to truncated sigma^70 ([1]; GST-AsiA 500 ng/ml + competitor at 10 µg/ml): 55%
- % Binding to truncated sigma^70 ([1]; GST-AsiA 500 ng/ml + competitor at 100 µg/ml): 1.5%

Molecule: AsiA protein (anti-sigma^70 factor of bacteriophage T4, asiA gene product), released from GST-AsiA by Factor Xa
- % Binding to truncated sigma^70 [2]: 12%
- [^3H]UTP (nmol) incorporated: E. coli RNA polymerase + 0.1 µg AsiA + 4 µg S. typhimurium sigma^70 (reactivation) [3]: 3 nmol
- [^3H]UTP (nmol) incorporated: E. coli RNA polymerase + 0.1 µg AsiA + 4 µg S. typhimurium sigma^70 preincubated with 0.1 µg AsiA [3]: 0.98 nmol
- [^3H]UTP (nmol) incorporated: E. coli RNA polymerase + 0.1 µg AsiA (control without AsiA 2.1), E. coli sigma^70 series [4]: 0.57 nmol
- [^3H]UTP (nmol) incorporated: E. coli RNA polymerase + 0.1 µg AsiA (control without AsiA 2.3), S. typhimurium sigma^70 series before sigma^70 is added [4]: 0.34 nmol
- [^3H]UTP (nmol) incorporated: E. coli RNA polymerase + 0.1 µg AsiA + 4 µg E. coli sigma^70 (reactivation) [4]: 2.3 nmol
- [^3H]UTP (nmol) incorporated: E. coli RNA polymerase + 0.1 µg AsiA + 4 µg E. coli sigma^70 preincubated with 0.1 µg AsiA [4]: 0.68 nmol
- inhibition of E. coli RNA polymerase activity by 0.07 µg AsiA, T4 DNA template [4]: > 80%

Molecule: GST-AsiA fusion protein (glutathione-S-transferase fused to the N-terminus of the bacteriophage T4 a (from UniProt P08515 1-218)
- % Binding to truncated sigma^70 [5]: 100%

Molecule: myxopyronin
- % Binding to truncated sigma^70 [1, 6]: 56%
